3 proteins from article PMC12159676, “An uncharacterized gene from the Actinobacillus genus encodes a glucosyltransferase with successive transfer activity and unique substrate specificity” (The Journal of Biological Chemistry, 2025) can be followed below.

The series concerns the molecule itself. As to the kind of experiment: SEC; gel-filtration chromatography of purified AmGGT and its mutants, with protein size markers; self-association, dimer against monomer. On the technique in general: SEC sorts molecules by how far they enter the pores of the column.

B1: Actinobacillus minor glucoside-glucosyltransferase (AmGGT), wild type (enzyme, Actinobacillus minor NM305, UniProt C5RYK2 1-341, looked up)
chain: MSNITFYFPFGHVPTYGGDFVNLEHIRALNKHGFSAKVILMKNQIPIVIESFPKDIPVVFYKPGMELNAQDVFVLSEGVRIMYSGLAQTQAFRVIVHNQNPFYTHTGMDSAHDINRYRITKIITPSHYTVKKLEEMGITKPMAVISPYIPEYFKPAEKSNEEIRITYSRRKREEESKILLFYLRSLYRGKKALHIRNLTNYKREEVAEEMSKAHIYASFAERESLGLMALEAMASGCHVVGFSGFTDFENQDVFNEENGDWVKEGEYKKFAEKLIEAIEQIENNTPSPKIENGLALVNSRFRQDRFEQEVVRVYQDILDNLPPLEGFNESDKVVLDFWHFD
notes: AmGGT, product of the ORF AM305_00150 of Actinobacillus minor strain NM305; ORF retrieved from NCBI, chemically synthesized, cloned into pET47b; The whole ORF was cloned; residues left over from the 3C protease site after cleavage are not described; also called AM305_00150 protein; WT AmGGT; source: E. coli BL21(DE3), purified (Ni-Sepharose, 3C protease cleavage, gel filtration; also HiTrapQ ion …)
Consider B1, for which the “stoichiometry N” value stood at 2.

B2: AmGGT E135A mutant (enzyme)
chain: MSNITFYFPFGHVPTYGGDFVNLEHIRALNKHGFSAKVILMKNQIPIVIESFPKDIPVVFYKPGMELNAQDVFVLSEGVRIMYSGLAQTQAFRVIVHNQNPFYTHTGMDSAHDINRYRITKIITPSHYTVKKLEAMGITKPMAVISPYIPEYFKPAEKSNEEIRITYSRRKREEESKILLFYLRSLYRGKKALHIRNLTNYKREEVAEEMSKAHIYASFAERESLGLMALEAMASGCHVVGFSGFTDFENQDVFNEENGDWVKEGEYKKFAEKLIEAIEQIENNTPSPKIENGLALVNSRFRQDRFEQEVVRVYQDILDNLPPLEGFNESDKVVLDFWHFD
notes: AmGGT, product of the ORF AM305_00150 of Actinobacillus minor strain NM305, with E135A; Production of the mutants is not described separately; source: E. coli BL21(DE3), purified (as told for the AmGGT protein); not shown: His6, N-terminal, cleaved
For the protein B2, the binding result is “binds”.

B3: AmGGT S185A mutant (enzyme)
chain: MSNITFYFPFGHVPTYGGDFVNLEHIRALNKHGFSAKVILMKNQIPIVIESFPKDIPVVFYKPGMELNAQDVFVLSEGVRIMYSGLAQTQAFRVIVHNQNPFYTHTGMDSAHDINRYRITKIITPSHYTVKKLEEMGITKPMAVISPYIPEYFKPAEKSNEEIRITYSRRKREEESKILLFYLRALYRGKKALHIRNLTNYKREEVAEEMSKAHIYASFAERESLGLMALEAMASGCHVVGFSGFTDFENQDVFNEENGDWVKEGEYKKFAEKLIEAIEQIENNTPSPKIENGLALVNSRFRQDRFEQEVVRVYQDILDNLPPLEGFNESDKVVLDFWHFD
notes: AmGGT, product of the ORF AM305_00150 of Actinobacillus minor strain NM305, with S185A; Production of the mutants is not described separately; source: E. coli BL21(DE3), purified (as told for the AmGGT protein); not shown: His6, N-terminal, cleaved
Regarding B3, the binding result is “binds”.

By stoichiometry N is commonly meant the number of molecules, sites or subunits per partner or assembly.
